This test deals with T1, human RXFP1 (human, UniProt Q9HBX9 1-757).
T1 sequence (looked up): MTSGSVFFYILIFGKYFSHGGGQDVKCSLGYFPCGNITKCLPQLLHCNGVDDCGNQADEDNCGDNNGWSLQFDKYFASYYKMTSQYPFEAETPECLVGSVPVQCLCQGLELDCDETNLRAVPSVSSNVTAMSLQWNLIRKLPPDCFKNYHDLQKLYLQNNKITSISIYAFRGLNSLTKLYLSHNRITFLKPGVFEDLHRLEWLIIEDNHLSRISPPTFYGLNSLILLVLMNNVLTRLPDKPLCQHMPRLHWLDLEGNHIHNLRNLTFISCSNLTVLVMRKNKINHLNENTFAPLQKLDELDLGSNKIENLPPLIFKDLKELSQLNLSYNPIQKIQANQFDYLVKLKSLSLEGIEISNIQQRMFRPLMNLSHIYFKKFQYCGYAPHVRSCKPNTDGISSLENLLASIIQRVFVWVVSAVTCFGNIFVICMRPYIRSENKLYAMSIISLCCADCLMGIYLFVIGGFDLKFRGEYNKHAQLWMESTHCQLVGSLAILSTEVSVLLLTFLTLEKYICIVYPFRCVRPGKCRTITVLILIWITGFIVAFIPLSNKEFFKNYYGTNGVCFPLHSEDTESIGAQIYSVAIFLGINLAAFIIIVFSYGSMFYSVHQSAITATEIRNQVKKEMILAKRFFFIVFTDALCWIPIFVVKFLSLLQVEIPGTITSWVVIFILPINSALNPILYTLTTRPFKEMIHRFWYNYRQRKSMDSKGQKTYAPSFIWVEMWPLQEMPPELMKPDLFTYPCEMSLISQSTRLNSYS
The experiment in a line: cell-based or functional assay.

Numbered stars: 1 amine (or outer) side, 2 acyl side, 3 side chain; on linkers, the order of the positions; unused ones are H or OH. Square brackets hold non-standard residues; d marks the D form. Side chains are listed from the residue outwards. * marks the point of attachment. TTDS = 4-[3-[2-[2-(3-aminopropoxy)ethoxy]ethoxy]propylamino]-4-oxo-butanoyl; Trp(5-Cl) = N[C@@H](Cc1c[nH]c2ccc(Cl)cc12)C(=O)O; Trp(5-F) = N[C@@H](Cc1c[nH]c2ccc(F)cc12)C(=O)O; Phe(4-F) = N[C@@H](Cc1ccc(F)cc1)C(=O)O; γGlu = O=C(O)[C@H](CCC(=O)[*:2])N[*:1]; Palmitoyl = CCCCCCCCCCCCCCCC(=O)*; αMeF = C[C@](N)(Cc1ccccc1)C(=O)O; Myristoyl = CCCCCCCCCCCCCC(=O)*; Cit = NC(=O)NCCC[C@H](N)C(=O)O; αMeK = C[C@](N)(CCCCN)C(=O)O; hLys = NCCCCC[C@H](N)C(=O)O; AEEA = NCCOCCOCC(=O)O; Aib = CC(C)(N)C(=O)O

Consider Ac-LEGREKVRAK(Ac)I[Aib][Aib]EGK([TTDS-TTDS-TTDS-γGlu-γGlu-γGlu-Palmitoyl])STWS[αMeK]RAK(Ac)-NH2 [Relaxin peptide analogue of SEQ ID NO: 11], for which the “EC50 (nM), OVCAR 5 cells (cAMP)” value is 0.83 nM and the “EMax, OVCAR 5 cells (cAMP)” value was determined as 93%.
The corresponding values for Ac-LEGREKVRAK(Ac)I[Aib][Aib]EGK([TTDS-TTDS-γGlu-γGlu-γGlu-γGlu-Palmitoyl])STFS[αMeK]RAK(Ac)-NH2 [Relaxin peptide analogue of SEQ ID NO: 10] are 0.79 nM and 95%.
The corresponding values for Ac-LEGREKVRAK(Ac)IA[Aib]EGK([TTDS-TTDS-TTDS-γGlu-γGlu-γGlu-Palmitoyl])STFS[αMeK]RAK(Ac)-NH2 [Relaxin peptide analogue of SEQ ID NO: 90] are 0.14 nM and 97%.
The corresponding values for Ac-LEGREKVRAK(Ac)I[Aib][Aib]EGK([TTDS-TTDS-TTDS-γGlu-γGlu-γGlu-Palmitoyl])STFTRRAK(Ac)-NH2 [Relaxin peptide analogue of SEQ ID NO: 93] are 0.77 nM and 86%.
Regarding Ac-LEGREKVRAK(Ac)I[Aib][Aib]EGK([TTDS-TTDS-γGlu-γGlu-Palmitoyl])STFS[αMeK]RAK(Ac)-NH2 [Relaxin peptide analogue of SEQ ID NO: 9], the “EC50 (nM), OVCAR 5 cells (cAMP)” value is 0.7 nM and the “EMax, OVCAR 5 cells (cAMP)” value was 93%.

B1: Relaxin peptide analogue of SEQ ID NO: 8 (peptide)
peptide: Ac-LEGREKVRAK(Ac)I[Aib][Aib]EGK([AEEA-AEEA-AEEA-AEEA-γGlu-γGlu-γGlu-Palmitoyl])STFS[αMeK]RAK(Ac)-NH2
SMILES: CCCCCCCCCCCCCCCC(=O)N[C@@H](CCC(=O)N[C@@H](CCC(=O)N[C@@H](CCC(=O)NCCOCCOCC(=O)NCCOCCOCC(=O)NCCOCCOCC(=O)NCCOCCOCC(=O)NCCCC[C@H](NC(=O)CNC(=O)[C@H](CCC(=O)O)NC(=O)C(C)(C)NC(=O)C(C)(C)NC(=O)[C@@H](NC(=O)[C@H](CCCCNC(C)=O)NC(=O)[C@H](C)NC(=O)[C@H](CCCNC(=N)N)NC(=O)[C@@H](NC(=O)[C@H](CCCCN)NC(=O)[C@H](CCC(=O)O)NC(=O)[C@H](CCCNC(=N)N)NC(=O)CNC(=O)[C@H](CCC(=O)O)NC(=O)[C@H](CC(C)C)NC(C)=O)C(C)C)[C@@H](C)CC)C(=O)N[C@@H](CO)C(=O)N[C@H](C(=O)N[C@@H](Cc1ccccc1)C(=O)N[C@@H](CO)C(=O)N[C@@](C)(CCCCN)C(=O)N[C@@H](CCCNC(=N)N)C(=O)N[C@@H](C)C(=O)N[C@@H](CCCCNC(C)=O)C(N)=O)[C@@H](C)O)C(=O)O)C(=O)O)C(=O)O
Consider B1, for which the “EC50 (nM), OVCAR 5 cells (cAMP)” value worked out at 1.86 nM and the “EMax, OVCAR 5 cells (cAMP)” value was 92%.
On the same counts, the results for Ac-LEGREKVRAK(Ac)I[Aib][Aib]EGK([TTDS-TTDS-TTDS-γGlu-γGlu-γGlu-Palmitoyl])STFSKRAK(Ac)-NH2 [Relaxin peptide analogue of SEQ ID NO: 13] are 2.12 nM and 91%.
On the same counts, the results for Ac-LEGRERVR[Aib]K(Ac)I[Aib][Aib]EGK([TTDS-TTDS-TTDS-γGlu-γGlu-γGlu-Palmitoyl])STWS[Aib]RRK(Ac)-NH2 [Relaxin peptide analogue of SEQ ID NO: 85] are 0.3 nM and 92%.
The corresponding values for Ac-K(Ac)EGREKVRAK(Ac)I[Aib][Aib]EGK([TTDS-TTDS-TTDS-γGlu-γGlu-γGlu-Palmitoyl])STFS[αMeK]RAK(Ac)-NH2 [Relaxin peptide analogue of SEQ ID NO: 81] are 0.16 nM and 98%.
Turning to Ac-LEGRERVRAK(Ac)I[Aib][Aib]EGK([TTDS-TTDS-TTDS-γGlu-γGlu-γGlu-Palmitoyl])ST[Trp(5-Cl)]S[Aib]RRK(Ac)-NH2 [Relaxin peptide analogue of SEQ ID NO: 80], the “EC50 (nM), OVCAR 5 cells (cAMP)” value was 0.63 nM and the “EMax, OVCAR 5 cells (cAMP)” value came out at 93%.
The corresponding values for Ac-LEGREKVRAK(Ac)I[Aib][Aib]EGK([TTDS-TTDS-TTDS-γGlu-γGlu-γGlu-Palmitoyl])STFS[hLys]RAK(Ac)-NH2 [Relaxin peptide analogue of SEQ ID NO: 88] are 0.17 nM and 96%.
On the same counts, the results for Ac-LEGREKVRAK(Ac)I[Aib][Aib]EGK([TTDS-TTDS-TTDS-γGlu-γGlu-γGlu-Palmitoyl])SKWS[Aib]RKK(Ac)-NH2 [Relaxin peptide analogue of SEQ ID NO: 83] are 0.25 nM and 94%.
Ac-LEGREKVR[Aib]K(Ac)I[Aib][Aib]EGK([TTDS-TTDS-TTDS-γGlu-γGlu-γGlu-Palmitoyl])STWS[Aib]RAK(Ac)-NH2 [Relaxin peptide analogue of SEQ ID NO: 82]: the “EC50 (nM), OVCAR 5 cells (cAMP)” value worked out at 0.54 nM and the “EMax, OVCAR 5 cells (cAMP)” value amounted to 95%.
On the same counts, the results for Ac-LEGREKVRAK(Ac)I[Aib][Aib]EGK([TTDS-TTDS-TTDS-γGlu-γGlu-γGlu-Palmitoyl])STFVRRAK(Ac)-NH2 [Relaxin peptide analogue of SEQ ID NO: 94] are 1.74 nM and 88%.
The corresponding values for Ac-LEGREKVRAK(Ac)I[Aib][Aib]EGK([TTDS-TTDS-TTDS-γGlu-γGlu-γGlu-Palmitoyl])STF[dS]KRAK(Ac)-NH2 [Relaxin peptide analogue of SEQ ID NO: 14] are 3.2 nM and 90%.
On the same counts, the results for Ac-LEGRERVRAK(Ac)I[Aib][Aib]EGK([TTDS-TTDS-TTDS-γGlu-γGlu-γGlu-Palmitoyl])ST[Trp(5-F)]S[Aib]RRK(Ac)-NH2 [Relaxin peptide analogue of SEQ ID NO: 92] are 0.1 nM and 99%.
For Ac-LEGREKVRAK(Ac)I[Aib][Aib]EGK([TTDS-TTDS-TTDS-γGlu-γGlu-γGlu-Myristoyl])STFS[αMeK]RAK-NH2 [Relaxin peptide analogue of SEQ ID NO: 96], the “EC50 (nM), OVCAR 5 cells (cAMP)” value was 0.88 nM and the “EMax, OVCAR 5 cells (cAMP)” value was found to be 92%.
On the same counts, the results for Ac-LEGREKVRAK(Ac)I[Aib][Aib]EGK([TTDS-TTDS-TTDS-γGlu-γGlu-γGlu-Palmitoyl])ST[αMeF]SRRAK(Ac)-NH2 [Relaxin peptide analogue of SEQ ID NO: 89] are 0.1 nM and 97%.
On the same counts, the results for Ac-LEGREKVRAK(Ac)I[Aib][Aib]EGK([TTDS-TTDS-TTDS-γGlu-γGlu-γGlu-Myristoyl])STFS[αMeK]RAK(Ac)-NH2 [Relaxin peptide analogue of SEQ ID NO: 95] are 1.8 nM and 91%.
With Ac-LEGREKVRAK(Ac)I[Aib]IEGK([TTDS-TTDS-TTDS-γGlu-γGlu-γGlu-Palmitoyl])STFS[αMeK]RAK(Ac)-NH2 [Relaxin peptide analogue of SEQ ID NO: 84], the “EC50 (nM), OVCAR 5 cells (cAMP)” value stood at 0.1 nM and the “EMax, OVCAR 5 cells (cAMP)” value was determined as 95%.
On the same counts, the results for Ac-LEGREKVRAK(Ac)I[Aib][Aib]EGK([TTDS-TTDS-TTDS-γGlu-γGlu-γGlu-γGlu-Myristoyl])STFS[αMeK]RAK-NH2 [Relaxin peptide analogue of SEQ ID NO: 97] are 0.29 nM and 98%.
The corresponding values for Ac-[Aib]EGREKVRAK(Ac)I[Aib]IEGK([TTDS-TTDS-TTDS-γGlu-γGlu-γGlu-Palmitoyl])STFS[αMeK]RAK(Ac)-NH2 [Relaxin peptide analogue of SEQ ID NO: 86] are 0.3 nM and 95%.
The corresponding values for Ac-LEGREKVRA[Cit]I[Aib][Aib]EGK([TTDS-TTDS-TTDS-γGlu-γGlu-γGlu-Palmitoyl])STFS[αMeK]RAK(Ac)-NH2 [Relaxin peptide analogue of SEQ ID NO: 12] are 0.93 nM and 90%.
As for Ac-LEGREKVRAK(Ac)I[Aib][Aib]EGK([TTDS-TTDS-TTDS-γGlu-γGlu-γGlu-Palmitoyl])STFSRRAK(Ac)-NH2 [Relaxin peptide analogue of SEQ ID NO: 87], the “EC50 (nM), OVCAR 5 cells (cAMP)” value is 0.1 nM and the “EMax, OVCAR 5 cells (cAMP)” value came out at 96%.
Take Ac-LEGRERVRAK(Ac)I[Aib][Aib]EGK([TTDS-TTDS-TTDS-γGlu-γGlu-γGlu-Palmitoyl])ST[Phe(4-F)]S[Aib]RRK(Ac)-NH2 [Relaxin peptide analogue of SEQ ID NO: 91]: the “EC50 (nM), OVCAR 5 cells (cAMP)” value was found to be 0.09 nM and the “EMax, OVCAR 5 cells (cAMP)” value was determined as 97%.

The record behind these values is patent publication US20240400638A1, “COMBINATION OF RELAXIN AND VASOPRESSIN ANALOGUES FOR TREATMENT OF RENAL DISORDERS OR CONDITIONS” (River 2 Renal Corp., priority 2021, published 2024).
